Results published in patent US20250171562A1.

Target: mixture of three Der p 2 specific recombinant human IgE clones H10, H12, P4E (human) (UniProt P01854)
Test: RBL-SX38 IgE displacement, FACS

Chain of mixture of three Der p 2 specific recombinant human IgE clones H10, H12, P4E (human) (P01854 other isoform, or with tags, fused parts or gaps): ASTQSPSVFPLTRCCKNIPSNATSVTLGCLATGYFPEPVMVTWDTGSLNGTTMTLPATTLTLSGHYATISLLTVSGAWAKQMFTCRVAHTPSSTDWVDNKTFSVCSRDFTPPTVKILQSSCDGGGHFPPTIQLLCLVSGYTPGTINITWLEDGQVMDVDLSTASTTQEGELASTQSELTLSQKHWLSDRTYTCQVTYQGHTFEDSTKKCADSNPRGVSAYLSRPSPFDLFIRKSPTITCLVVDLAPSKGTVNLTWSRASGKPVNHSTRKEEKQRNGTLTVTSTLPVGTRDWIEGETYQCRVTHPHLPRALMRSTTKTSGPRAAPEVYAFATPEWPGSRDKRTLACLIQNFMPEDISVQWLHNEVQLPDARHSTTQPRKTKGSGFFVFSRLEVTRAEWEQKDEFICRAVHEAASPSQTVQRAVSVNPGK

B1: CIgG4F3A1(G4S)3 (Fc fusion)
chain 1: GPPCPPCPAPEFLGGPSVFLFPPKPKDTLMISRTPEVTCVVVDVSQEDPEVQFNWYVDGVEVHNAKTKPREEQFNSTYRVVSVLTVLHQDWLNGKEYKCKVSNKGLPSSIEKTISKAKGQPREPQVYTLPPCQEEMTKNQVSLWCLVKGFYPSDIAVEWESNGQPENNYKTTPPVLDSDGSFFLYSRLTVDKSRWQEGNVFSCSVMHEALHNHYTQKSLSLSLGKGGGGSGGGGSGGGGSDVQLQESGGGLVQAGGSLKLSCAASRGSLSRWDVAWFRQAPGKERSFVTRISWSGTTSYYADAVKGRFAISRDNAKNTVYLQMNSLKPEDTAVYYCAVALYGNRGYYDVNAHSYWGQGTQVTVS
chain 2: GPPCPPCPAPEFLGGPSVFLFPPKPKDTLMISRTPEVTCVVVDVSQEDPEVQFNWYVDGVEVHNAKTKPREEQFNSTYRVVSVLTVLHQDWLNGKEYKCKVSNKGLPSSIEKTISKAKGQPREPQVCTLPPSQEEMTKNQVSLSCAVKGFYPSDIAVEWESNGQPENNYKTTPPVLDSDGSFFLVSRLTVDKSRWQEGNVFSCSVMHEALHNHYTQKSLSLSLGKGGGGSGGGGSGGGGSEVQLLESGGGLVQPGGSLRLSCAASGFTFGNYDMAWVRQAPGKRPEWVSSIDTGGDITHYADSVKGRFTISRDNAKNTLYLQMNSLRPEDTAVYWCATDEEYALGPNEFDYYGQGTLVTVSS
Max effect/effect 1 µM: 2%

B2: NIgG4F3A1(G4S)3 (Fc fusion)
chain 1: DVQLQESGGGLVQAGGSLKLSCAASRGSLSRWDVAWFRQAPGKERSFVTRISWSGTTSYYADAVKGRFAISRDNAKNTVYLQMNSLKPEDTAVYYCAVALYGNRGYYDVNAHSYWGQGTQVTVSGGGGSGGGGSGGGGSGPPCPPCPAPEFLGGPSVFLFPPKPKDTLMISRTPEVTCVVVDVSQEDPEVQFNWYVDGVEVHNAKTKPREEQFNSTYRVVSVLTVLHQDWLNGKEYKCKVSNKGLPSSIEKTISKAKGQPREPQVYTLPPCQEEMTKNQVSLWCLVKGFYPSDIAVEWESNGQPENNYKTTPPVLDSDGSFFLYSRLTVDKSRWQEGNVFSCSVMHEALHNHYTQKSLSLSLGK
chain 2: EVQLLESGGGLVQPGGSLRLSCAASGFTFGNYDMAWVRQAPGKRPEWVSSIDTGGDITHYADSVKGRFTISRDNAKNTLYLQMNSLRPEDTAVYWCATDEEYALGPNEFDYYGQGTLVTVSSGGGGSGGGGSGGGGSGPPCPPCPAPEFLGGPSVFLFPPKPKDTLMISRTPEVTCVVVDVSQEDPEVQFNWYVDGVEVHNAKTKPREEQFNSTYRVVSVLTVLHQDWLNGKEYKCKVSNKGLPSSIEKTISKAKGQPREPQVCTLPPSQEEMTKNQVSLSCAVKGFYPSDIAVEWESNGQPENNYKTTPPVLDSDGSFFLVSRLTVDKSRWQEGNVFSCSVMHEALHNHYTQKSLSLSLGK
EC50: 0.9 nM | Max effect/effect 1 µM: 94%

B3: CIgG4F3A1(G4S)1 (Fc fusion)
chain 1: GPPCPPCPAPEFLGGPSVFLFPPKPKDTLMISRTPEVTCVVVDVSQEDPEVQFNWYVDGVEVHNAKTKPREEQFNSTYRVVSVLTVLHQDWLNGKEYKCKVSNKGLPSSIEKTISKAKGQPREPQVYTLPPCQEEMTKNQVSLWCLVKGFYPSDIAVEWESNGQPENNYKTTPPVLDSDGSFFLYSRLTVDKSRWQEGNVFSCSVMHEALHNHYTQKSLSLSLGKGGGGSDVQLQESGGGLVQAGGSLKLSCAASRGSLSRWDVAWFRQAPGKERSFVTRISWSGTTSYYADAVKGRFAISRDNAKNTVYLQMNSLKPEDTAVYYCAVALYGNRGYYDVNAHSYWGQGTQVTVS
chain 2: GPPCPPCPAPEFLGGPSVFLFPPKPKDTLMISRTPEVTCVVVDVSQEDPEVQFNWYVDGVEVHNAKTKPREEQFNSTYRVVSVLTVLHQDWLNGKEYKCKVSNKGLPSSIEKTISKAKGQPREPQVCTLPPSQEEMTKNQVSLSCAVKGFYPSDIAVEWESNGQPENNYKTTPPVLDSDGSFFLVSRLTVDKSRWQEGNVFSCSVMHEALHNHYTQKSLSLSLGKGGGGSEVQLLESGGGLVQPGGSLRLSCAASGFTFGNYDMAWVRQAPGKRPEWVSSIDTGGDITHYADSVKGRFTISRDNAKNTLYLQMNSLRPEDTAVYWCATDEEYALGPNEFDYYGQGTLVTVSS
Max effect/effect 1 µM: 35%

B4: CIgG4F3A1(G4S)2 (Fc fusion)
chain 1: GPPCPPCPAPEFLGGPSVFLFPPKPKDTLMISRTPEVTCVVVDVSQEDPEVQFNWYVDGVEVHNAKTKPREEQFNSTYRVVSVLTVLHQDWLNGKEYKCKVSNKGLPSSIEKTISKAKGQPREPQVYTLPPCQEEMTKNQVSLWCLVKGFYPSDIAVEWESNGQPENNYKTTPPVLDSDGSFFLYSRLTVDKSRWQEGNVFSCSVMHEALHNHYTQKSLSLSLGKGGGGSGGGGSDVQLQESGGGLVQAGGSLKLSCAASRGSLSRWDVAWFRQAPGKERSFVTRISWSGTTSYYADAVKGRFAISRDNAKNTVYLQMNSLKPEDTAVYYCAVALYGNRGYYDVNAHSYWGQGTQVTVS
chain 2: GPPCPPCPAPEFLGGPSVFLFPPKPKDTLMISRTPEVTCVVVDVSQEDPEVQFNWYVDGVEVHNAKTKPREEQFNSTYRVVSVLTVLHQDWLNGKEYKCKVSNKGLPSSIEKTISKAKGQPREPQVCTLPPSQEEMTKNQVSLSCAVKGFYPSDIAVEWESNGQPENNYKTTPPVLDSDGSFFLVSRLTVDKSRWQEGNVFSCSVMHEALHNHYTQKSLSLSLGKGGGGSGGGGSEVQLLESGGGLVQPGGSLRLSCAASGFTFGNYDMAWVRQAPGKRPEWVSSIDTGGDITHYADSVKGRFTISRDNAKNTLYLQMNSLRPEDTAVYWCATDEEYALGPNEFDYYGQGTLVTVSS
Max effect/effect 1 µM: 0%

B5: CIgG4F3A1(RS) (Fc fusion)
chain 1: GPPCPPCPAPEFLGGPSVFLFPPKPKDTLMISRTPEVTCVVVDVSQEDPEVQFNWYVDGVEVHNAKTKPREEQFNSTYRVVSVLTVLHQDWLNGKEYKCKVSNKGLPSSIEKTISKAKGQPREPQVYTLPPCQEEMTKNQVSLWCLVKGFYPSDIAVEWESNGQPENNYKTTPPVLDSDGSFFLYSRLTVDKSRWQEGNVFSCSVMHEALHNHYTQKSLSLSLGKRSDVQLQESGGGLVQAGGSLKLSCAASRGSLSRWDVAWFRQAPGKERSFVTRISWSGTTSYYADAVKGRFAISRDNAKNTVYLQMNSLKPEDTAVYYCAVALYGNRGYYDVNAHSYWGQGTQVTVS
chain 2: GPPCPPCPAPEFLGGPSVFLFPPKPKDTLMISRTPEVTCVVVDVSQEDPEVQFNWYVDGVEVHNAKTKPREEQFNSTYRVVSVLTVLHQDWLNGKEYKCKVSNKGLPSSIEKTISKAKGQPREPQVCTLPPSQEEMTKNQVSLSCAVKGFYPSDIAVEWESNGQPENNYKTTPPVLDSDGSFFLVSRLTVDKSRWQEGNVFSCSVMHEALHNHYTQKSLSLSLGKRSEVQLLESGGGLVQPGGSLRLSCAASGFTFGNYDMAWVRQAPGKRPEWVSSIDTGGDITHYADSVKGRFTISRDNAKNTLYLQMNSLRPEDTAVYWCATDEEYALGPNEFDYYGQGTLVTVSS
Max effect/effect 1 µM: 9%

B6: NIgG4F4A1(RS) (Fc fusion)
chain 1: DVQLQESGGGLVQAGGSLRLSCAVSGLSFSSMGWFRQPPGKEREFVAAISLYSGSTYYADSVKGRFTISSDNAKSTVYLQMNSLKPEDAAVYFCAADRQRTWSTFYASRQATYNYWGQGTQVTVTSRSGPPCPPCPAPEFLGGPSVFLFPPKPKDTLMISRTPEVTCVVVDVSQEDPEVQFNWYVDGVEVHNAKTKPREEQFNSTYRVVSVLTVLHQDWLNGKEYKCKVSNKGLPSSIEKTISKAKGQPREPQVYTLPPCQEEMTKNQVSLWCLVKGFYPSDIAVEWESNGQPENNYKTTPPVLDSDGSFFLYSRLTVDKSRWQEGNVFSCSVMHEALHNHYTQKSLSLSLGK
chain 2: EVQLLESGGGLVQPGGSLRLSCAASGFTFGNYDMAWVRQAPGKRPEWVSSIDTGGDITHYADSVKGRFTISRDNAKNTLYLQMNSLRPEDTAVYWCATDEEYALGPNEFDYYGQGTLVTVSSRSGPPCPPCPAPEFLGGPSVFLFPPKPKDTLMISRTPEVTCVVVDVSQEDPEVQFNWYVDGVEVHNAKTKPREEQFNSTYRVVSVLTVLHQDWLNGKEYKCKVSNKGLPSSIEKTISKAKGQPREPQVCTLPPSQEEMTKNQVSLSCAVKGFYPSDIAVEWESNGQPENNYKTTPPVLDSDGSFFLVSRLTVDKSRWQEGNVFSCSVMHEALHNHYTQKSLSLSLGK
EC50: 331 nM | Max effect/effect 1 µM: 74%
